Measured values taken from US20250066487A1 (ABL BIO, published 2025).

How the values were obtained:
[1] = target: T1, human 4-1BB-Fc protein (Sino Biological) (human, UniProt Q07011 24-186); assay: ELISA, plate coated with human 4-1BB-Fc, detection with anti-human IgG-HRP
T1 construct: Bought protein; not shown: Fc part of the bought fusion protein

[2] = target: T2, human 4-1BB expressed on GloResponse NFκB-luc2/4-1BB Jurkat cells (Promega) (human, UniProt Q07011 24-255); assay: cell-based or functional assay
[3] = target: T2, human 4-1BB expressed on GloResponse …; assay: cell-based or functional assay; remark: listed apart in the source

T2 sequence (Q07011 24-255 limits assumed): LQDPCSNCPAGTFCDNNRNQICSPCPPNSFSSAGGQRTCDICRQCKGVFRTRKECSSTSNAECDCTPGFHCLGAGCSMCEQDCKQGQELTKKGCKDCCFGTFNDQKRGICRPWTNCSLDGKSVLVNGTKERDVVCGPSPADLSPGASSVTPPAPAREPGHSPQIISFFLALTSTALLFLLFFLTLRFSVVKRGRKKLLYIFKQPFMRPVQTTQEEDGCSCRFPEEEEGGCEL
T1 sequence (Q07011 24-186 limits assumed): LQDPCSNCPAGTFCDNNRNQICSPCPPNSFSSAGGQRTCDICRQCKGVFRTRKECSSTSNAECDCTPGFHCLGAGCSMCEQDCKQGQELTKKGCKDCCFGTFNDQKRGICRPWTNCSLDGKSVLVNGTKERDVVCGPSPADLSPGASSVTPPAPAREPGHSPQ

Binder | EC50 [1] [nM] | EC50, FcγRIIb-independent 4-1BB bioassay [2] [nM] | Fold of induction (RLU), FcγRIIb-independent 4-1BB bioassay [2] | EC50, FcγRIIb-dependent 4-1BB bioassay [3] [nM] | Fold of induction (RLU), FcγRIIb-dependent 4-1BB bioassay [3]
AB41 (antibody, human IgG4 S228P, kappa, V domains shown, Full-length IgG form; also called anti-4-1BB antibody AB41 (full-length IgG form)) VH: QVQLQQSGAEVIKPGASVKLSCKASGYTFSSYWMHWVRQAPGQGLEWIGEINPGNGHTNYNEKFKSRATLTGDTSTSTVYMELSSLRSEDTAVYYCARSFTTARAFAYWGQGTLVTVSS VL: DIVMTQSPAFLSVTPGEKVTITCRASQTISDYLHWYQQKPDQAPKLLIKYASQSISGIPSRFSGSGSGTDFTFTISSLEAEDAATYYCQDGHSFPPTFGQGTKLEIKR | 0.2 |  |  |  | 
1A12 (antibody, human IgG4 S228P, lambda, V domains shown, Full-length IgG form; also called 1Al2; anti-4-1BB antibody 1A12 (full-length IgG form)) VH: EVQLLESGGGLVQPGGSLRLSCAASGFTFSGYDMSWVRQAPGKGLEWVSVIYPDDGNTYYADSVKGRFTISRDNSKNTLYLQMNSLRAEDAAVYYCAKHGGQKPTTKSSSAYGMDGWGQGTLVTVSS VL: QSVLTQPPSASGTPGRRVTISCSGSSSNIGNNYVTWYQQLPGTAPKLLIYADSHRPSGVPDRFSGSKSGTSASLAISGLRSEDEADYYCATWDYSLSGYVFGGGTKLTVLG | 0.18 |  |  |  | 
Urelumab (antibody, V domains shown) VH: QVQLQQWGAGLLKPSETLSLTCAVYGGSFSGYYWSWIRQSPEKGLEWIGEINHGGYVTYNPSLESRVTISVDTSKNQFSLKLSSVTAADTAVYYCARDYGPGNYDWYFDLWGRGTLVTVSS VL: EIVLTQSPATLSLSPGERATLSCRASQSVSSYLAWYQQKPGQAPRLLIYDASNRATGIPARFSGSGSGTDFTLTISSLEPEDFAVYYCQQRSNWPPALTFGGGTKVEIK |  | 0.537 | 14.1 fold (RLU) | 0.239 | 190 fold (RLU)
